Legend:
GST-SAP18 = GST-SAP18 (UniProt O00422); assay: pull-down; GST-INI1, GST-SAP18, GST-LEDGF or GST-Gemin2 as bait, His6-IN(WT) or His6-IN(W235E) as prey; bound protein quantified as fraction bound after normalising to the loading control
GST-LEDGF = GST-LEDGF (UniProt O75475); assay: GST-pull down, quantitation of bound protein; details: parent: est. 1.0; read off a plot
GST-Gemin2 = GST-Gemin2 (UniProt O14893); assay: GST-pull down, quantitation of bound protein; details: parent: est. 1.0; read off a plot
GST-Gemin2, sequence (O14893 whole entry): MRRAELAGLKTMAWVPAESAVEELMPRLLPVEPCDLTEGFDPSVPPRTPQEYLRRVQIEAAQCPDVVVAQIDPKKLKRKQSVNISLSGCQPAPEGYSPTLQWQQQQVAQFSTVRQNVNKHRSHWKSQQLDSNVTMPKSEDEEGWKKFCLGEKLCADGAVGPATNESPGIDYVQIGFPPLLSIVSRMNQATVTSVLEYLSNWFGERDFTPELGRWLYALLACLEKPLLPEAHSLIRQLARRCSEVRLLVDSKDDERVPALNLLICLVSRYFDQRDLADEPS

GST-SAP18, sequence (O00422 whole entry): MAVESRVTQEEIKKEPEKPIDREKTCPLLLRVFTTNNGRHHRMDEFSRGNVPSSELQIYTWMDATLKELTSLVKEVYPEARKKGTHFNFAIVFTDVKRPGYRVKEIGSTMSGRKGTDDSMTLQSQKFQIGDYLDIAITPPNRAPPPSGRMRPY
GST-LEDGF, sequence (O75475 whole entry): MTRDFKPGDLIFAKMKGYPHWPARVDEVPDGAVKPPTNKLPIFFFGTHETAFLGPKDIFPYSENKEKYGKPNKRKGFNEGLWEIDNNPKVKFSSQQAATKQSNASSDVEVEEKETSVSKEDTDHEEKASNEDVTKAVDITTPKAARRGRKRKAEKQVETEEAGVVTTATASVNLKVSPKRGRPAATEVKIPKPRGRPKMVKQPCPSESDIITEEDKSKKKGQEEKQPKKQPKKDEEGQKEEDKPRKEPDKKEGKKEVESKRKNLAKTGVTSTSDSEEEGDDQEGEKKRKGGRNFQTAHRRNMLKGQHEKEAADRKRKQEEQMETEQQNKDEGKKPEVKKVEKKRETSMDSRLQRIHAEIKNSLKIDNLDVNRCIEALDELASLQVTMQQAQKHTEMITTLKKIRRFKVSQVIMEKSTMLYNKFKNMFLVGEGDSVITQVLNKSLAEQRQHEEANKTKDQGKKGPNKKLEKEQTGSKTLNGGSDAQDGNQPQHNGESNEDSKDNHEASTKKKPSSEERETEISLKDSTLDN

Substance	% binding (GST-SAP18)	ratio to parent (GST-LEDGF)	ratio to parent (GST-Gemin2)
His6-IN(W235E) (enzyme)	20%	–	–
His6-IN(WT) W235E	–	0.82	0.8

— publication PMC8115288
